Experimental data taken from US12637513B2, “Method of treating cancer by administering an inhibitor of erythropoietin receptor activity comprising either erythropoietin receptor or erythropoietin protein” (ImmunEdge, Inc., priority 2022, dated 2026).

Experiments:
[1] = molecular target: T1, soluble hetero-EPOR (EPOR-CD131-Fc) (Homo sapiens, UniProt P19235+P32927); assay: Bio-layer interferometry (Octet) binding of hybridoma antibodies to EPOR-CD131-Fc; settings: hybridoma supernatants; 30 nM soluble receptor
T1 construct: Chimeric Fc fusion proteins of the extracellular domains of human EPOR and human CD131; purchased Sino Biological CT010-H02H
T1 sequence (P19235 25-250 limits assumed): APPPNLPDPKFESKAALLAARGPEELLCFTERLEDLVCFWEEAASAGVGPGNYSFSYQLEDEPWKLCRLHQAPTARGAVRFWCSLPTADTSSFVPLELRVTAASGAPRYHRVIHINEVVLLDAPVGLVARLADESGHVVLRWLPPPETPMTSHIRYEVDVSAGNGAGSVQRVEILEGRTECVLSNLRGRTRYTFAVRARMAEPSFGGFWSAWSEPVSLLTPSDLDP
T1 sequence (P32927 17-443 limits assumed): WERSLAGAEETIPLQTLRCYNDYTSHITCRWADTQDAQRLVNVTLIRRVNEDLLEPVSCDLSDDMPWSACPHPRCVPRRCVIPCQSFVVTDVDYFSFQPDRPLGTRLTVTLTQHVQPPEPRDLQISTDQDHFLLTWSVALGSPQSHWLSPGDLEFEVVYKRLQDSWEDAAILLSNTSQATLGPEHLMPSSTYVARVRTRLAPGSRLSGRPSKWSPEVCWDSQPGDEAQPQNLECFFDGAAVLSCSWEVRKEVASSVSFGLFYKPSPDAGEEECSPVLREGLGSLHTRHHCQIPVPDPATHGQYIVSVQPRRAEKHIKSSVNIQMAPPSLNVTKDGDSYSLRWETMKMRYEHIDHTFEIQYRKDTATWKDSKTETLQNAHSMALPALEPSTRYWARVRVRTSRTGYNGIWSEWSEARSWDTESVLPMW
Text: (§1) The B cells from ATX-GK mice were fused with mouse myeloma cells to generate hybridoma. The hybridoma cells were screened twice. In the first screening, 293 cells expressing human EPOR, human CD131, or both were used as the primary screen. 87 hybridoma antibodies have been isolated by positive staining on 293T cells expressing human EPOR (hEPOR), human CD131 (hCD131), or both, with the hybridoma supernatants (Table 11 and FIG. 17). Expression of EPOR and CD131 was confirmed by flow cytometry with Phycoerythrin (PE)-labeled anti-EPOR (R&D Systems, Cat #FAB307P) and Alexa Fluor® 647 (AF647)-labeled anti-CD131 (BD Biosciences, Cat #564191), respectively (FIG. 28B). All hybridoma clones were purified and sequenced. Binding kinetics with soluble hetero-EPOR (EPOR-CD131-Fc), soluble EPO receptor subunit of hetero-EPOR (EPOR-Fc), and soluble CD131 subunit of hetero-EPOR (CD131-Fc) were measured using bio-layer interferometry (Octet®) by capturing the hybridoma antibodies in the supernatants on biosensors coated with anti-mouse Fc first and dipping the biosensors into the solutions containing 30 nM of the soluble receptor Fc fusion proteins. The supernatants were also used to block the interaction between EPO and EPOR. The soluble EPOR-CD131-Fc was first captured on biosensors coated with anti-human Fc and then dipped into 10 nM of EPO with or without the hybridoma supernatants. […]

EPOR-Fc = molecular target: T2, EPOR-Fc (Homo sapiens, UniProt P19235); assay: Bio-layer interferometry (Octet) binding of hybridoma antibodies to EPOR-Fc; settings: hybridoma supernatants; 30 nM soluble receptor
T2 construct: The extracellular domains of EPOR or CD131 are produced as soluble Fc fusion proteins; purchased Sino Biological 10707-H02H
T2 sequence (P19235 25-250 limits assumed): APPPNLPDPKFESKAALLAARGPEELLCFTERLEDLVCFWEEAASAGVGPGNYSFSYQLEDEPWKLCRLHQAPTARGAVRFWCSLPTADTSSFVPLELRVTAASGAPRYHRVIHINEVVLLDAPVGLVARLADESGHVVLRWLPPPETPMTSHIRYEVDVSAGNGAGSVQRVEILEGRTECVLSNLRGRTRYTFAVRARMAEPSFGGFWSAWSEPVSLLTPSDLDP
Text: as §1

[2] = molecular target: T3, EPO/EPOR interaction (EPOR-CD131-Fc and EPO) (Homo sapiens, UniProt P19235+P32927); assay: Octet blocking of the EPO/EPOR interaction by hybridoma supernatants; format: binding; settings: EPO 10 nM
T3 construct: Chimeric Fc fusion proteins of the extracellular domains of human EPOR and human CD131; purchased Sino Biological CT010-H02H
T3 sequence (P19235 25-250 limits assumed): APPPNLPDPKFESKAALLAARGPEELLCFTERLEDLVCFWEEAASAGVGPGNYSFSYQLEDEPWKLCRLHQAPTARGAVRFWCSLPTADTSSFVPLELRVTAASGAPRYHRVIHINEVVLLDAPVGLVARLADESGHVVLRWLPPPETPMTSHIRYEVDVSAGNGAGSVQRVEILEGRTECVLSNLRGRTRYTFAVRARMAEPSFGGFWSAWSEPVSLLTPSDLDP
T3 sequence (P32927 17-443 limits assumed): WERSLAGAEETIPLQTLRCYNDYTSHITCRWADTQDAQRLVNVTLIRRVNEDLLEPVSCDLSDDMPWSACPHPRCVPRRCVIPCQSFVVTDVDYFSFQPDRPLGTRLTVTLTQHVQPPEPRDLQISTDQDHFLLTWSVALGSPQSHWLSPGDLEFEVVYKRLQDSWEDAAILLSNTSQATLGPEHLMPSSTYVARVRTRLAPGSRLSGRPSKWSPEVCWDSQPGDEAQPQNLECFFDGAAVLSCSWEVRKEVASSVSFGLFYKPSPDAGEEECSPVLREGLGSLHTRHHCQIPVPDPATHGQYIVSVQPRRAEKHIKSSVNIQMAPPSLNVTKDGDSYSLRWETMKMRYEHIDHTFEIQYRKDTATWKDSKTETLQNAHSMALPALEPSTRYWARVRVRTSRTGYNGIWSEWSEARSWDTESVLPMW

binding to EPOR-CD131-Fc [1]: potent binding
binding to EPOR-Fc (EPOR-Fc): potent binding
blocking of the EPO/EPOR interaction [2]: nearly complete blocking
B1: EPORab - M2: hybridoma antibody clone, VH/VK in Table 10 (antibody, V domains shown)
VH: QVQLVESGGGLVKPGGSLRLSCAASGFTFSDSYMSWIRQAPGKGLEWVSYISNSGSYMYYADSVKGRFTISRDNAKNSLYLQMNNLRAEDTAVYYCARDKLGIGDYWGQGTLVTVSS
VL: DIQMTQSPSSLSASVGDRVTITCRASQGIRNDLGWFQQKPGKAPKRLIYAASRLQSGVPSRFSGSGSGTEFTLTISSLQPEDFATYCCLQHHTYPPTFGQGTKVEIK
